Data published in patent US20050113304.

Molecular target: T1, Buforin I
T1 chain: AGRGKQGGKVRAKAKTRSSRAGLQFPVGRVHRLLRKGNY

B1: Botulinum toxin B (protein)
chain 1: PVTINNFNYNDPIDNNNIIMMEPPFARGTGRYYKAFKITDRIWIIPERYTFGYKPEDFNKSSGIFNRDVCEYYDPDYLNTNDKKNIFLQTMIKLFNRIKSKPLGEKLLEMIINGIPYLGDRRVPLEEFNTNIASVTVNKLISNPGEVERKKGIFANLIIFGPGPVLNENETIDIGIQNHFASREGFGGIMQMKFCPEYVSVFNNVQENKGASIFNRRGYFSDPALILMHELIHVLHGLYGIKVDDLPIVPNEKKFFMQSTDAIQAEELYTFGGQDPSIITPSTDKSIYDKVLQNFRGIVDRLNKVLVCISDPNININIYKNKFKDKYKFVEDSEGKYSIDVESFDKLYKSLMFGFTETNIAENYKIKTRASYFSDSLPPVKIKNLLDNEIYTIEEGFNISDKDMEKEYRGQNKAINKQAYEEISKEHLAVYKIQMCKSVK
chain 2: APGICIDVDNEDLFFIADKNSFSDDLSKNERIEYNTQSNYIENDFPINELILDTDLISKIELPSENTESLTDFNVDVPVYEKQPAIKKIFTDENTIFQYLYSQTFPLDIRDISLTSSFDDALLFSNKVYSFFSMDYIKTANKVVEAGLFAGWVKQIVNDFVIEANKSNTMDKIADISLIVPYIGLALNVGNETAKGNFENAFEIAGASILLEFIPELLIPVVGAFLLESYIDNKNKIIKTIDNALTKRNEKWSDMYGLIVAQWLSTVNTQFYTIKEGMYKALNYQAQALEEIIKYRYNIYSEKEKSNINIDFNDINSKLNEGINQAIDNINNFINGCSVSYLMKKMIPLAVEKLLDFDNTLKKNLLNYIDENKLYLIGSAEYEKSKVNKYLKTIMPFDLSIYTNDTILIEMFNKYNSEILNNIILNLRYKDNNLIDLSGYGAKVEVYDGVELNDKNQFKLTSSANSKIRVTQNQNIIFNSVFLDFSVSFWIRIPKYKNDGIQNYIHNEYTIINCMKNNSGWKISIRGNRIIWTLIDINGKTKSVFFEYNIREDISEYINRWFFVTITNNLNNAKIYINGKLESNTDIKDIREVIANGEIIFKLDGDIDRTQFIWMKYFSIFNTELSQSNIEERYKIQSYSEYLKDFWGNPLMYNKEYYMFNAGNKNSYIKLKKDSPVGEILTRSKYNQNSKYINYRDLYIGEKFIIRRKSNSQSINDDIVRKEDYIYLDFFNLNQEWRVYTYKYFKKEEEKLFLAPISDSDEFYNTIQIKEYDEQPTYSCQLLFKKDEESTDEIGLIGIHRFYESGIVFEEYKDYFCISKWYLKEVKRKPYNLKLGCNWQFIPKDEGWTE
Question: B1 was tested. Which “substrate cleavage in the endopeptidase assay” value did it give?
Answer: B-I is not a substrate for BttxB
